Test results as given in PMC10332591.
Several values for one entry are separate records, joined by “and”; a condition that tells them apart may be missing. Identical values can stand only once.

Molecular target: human CD64 (FcγRI) (human) (UniProt P12314)
Experiment: BLI; Octet RED96; biotinylated human CD64, CD32a or CD16a loaded on streptavidin biosensors; serially diluted ARX788 drug substance in HBS-P+ buffer; global fit, Langmuir 1:1 model; for CD32a and CD16a only 3.0 seconds of the dissociation step fitted to avoid avidity effects

human CD64 (FcγRI) (human), sequence (P12314 16-374): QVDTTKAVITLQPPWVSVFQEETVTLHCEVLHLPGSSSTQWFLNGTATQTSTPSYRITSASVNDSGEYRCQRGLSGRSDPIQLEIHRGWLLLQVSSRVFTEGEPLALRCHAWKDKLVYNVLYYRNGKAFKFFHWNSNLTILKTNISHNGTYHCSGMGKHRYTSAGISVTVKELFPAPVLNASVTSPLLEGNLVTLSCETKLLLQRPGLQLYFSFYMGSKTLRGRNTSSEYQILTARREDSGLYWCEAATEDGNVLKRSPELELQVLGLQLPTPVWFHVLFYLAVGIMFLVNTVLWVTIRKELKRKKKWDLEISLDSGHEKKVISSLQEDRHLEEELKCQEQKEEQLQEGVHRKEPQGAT

## ARX788 (antibody)
  KD ratio (Sample/RS): 0.98 and 0.89 and 1
